Reference: publication PMC8965487

molecular target: Cy5-labeled extracellular domain of human Angiotensin-Converting Enzyme 2 (ACE2) (UniProt Q9BYF1); conditions: parent: est. 0; read off a plot

Substance	other: Log2 EC50 (WT/MT)
SARS-CoV-2 wild-type Spike S1 L18F; D614G	0.35
SARS-CoV-2 wild-type Spike S1 HV69-70 del; N501Y; D614G	-0.05
SARS-CoV-2 wild-type Spike S1 N234Q	-0.05
SARS-CoV-2 wild-type Spike S1 A222V; D614G	-0.1
SARS-CoV-2 wild-type Spike S1 T20N; D614G	0.2
SARS-CoV-2 wild-type Spike S1 D614G	-0.05
SARS-CoV-2 wild-type Spike S1+S2 D614G	0.45
